The target of data set [1] is Prp43-GP (T61-A764 fused to G-path domain of Pfa1) (Chaetomium thermophilum). Briefly: EMSA; milder dissociation than wild type; 120 nM protein, 30 nM DNA. The note with it: tags: C-terminal G-path domain fusion; GST tag removed; label: FAM. As for the experimental part: (§1) In this example, the binding of the N-terminus (M1-N60)-truncated wild-type Prp43 helicases or the modified protein constructs Prp43-GP and Prp43-GP-2 (F181C/N623C/C508S) to DNA, including the enhancement of nucleic acid binding following disulfide bond formation between mutant sites F181C and N623C in the mutants catalyzed by a TMAD catalyst, was assayed by an electrophoresis mobility shift assay.
(§2) The experimental procedures were as follows: 30 nM FAM fluorophore-labeled single-stranded poly-thymine substrate T44-37-FAM was added to a buffer (10 mM HEPES, 50 mM KCl, pH 7.0), the wild-type Prp43 helicase and the modified helicases […] and Prp43-GP-2 at a final concentration of 120 nM were separately added, and the mixture was incubated at 30° C. for 1.5 h; a TMAD cross-linking agent at a final concentration 1000 times that of the helicase was used for catalyzing the crosslinking of cysteines at mutation sites, and the mixture was incubated at 30° C. for 1.5 h.
(Mobility shift assays separate free from complexed probe on a gel.)

The target of data set [2] is Prp43-GP-2 (F181C/N623C/C508S) (Chaetomium thermophilum). Briefly: EMSA; no significant dissociation with or without TMAD; 120 nM protein, 30 nM DNA. The note with it: tags: C-terminal G-path domain fusion; GST tag removed; label: FAM. How it is done: as §1, §2

This is an account of results in patent US20240368568, “MODIFIED PRP43 HELICASE AND USE THEREOF” (QITAN TECHNOLOGY LTD., CHENGDU, published 2024).

In the case of TTTTTTTTTTTTTTTTTTTTTTTTTTTTTTTTTTTTTTTTTTTT (ssDNA, [FAM at T37 (from name)]) [T44-37-FAM poly-thymine substrate], the binding result in data set [1] and in data set [2] was “binds” throughout.
